# Measurements as given in the supplement of paper PMC9112550, “Optimization of the antimicrobial peptide Bac7 by deep mutational scanning” (BMC Biology, 2022).
# Test system: Escherichia coli TOP10
# Experiment: shrunken log2 fold change of peptide-encoding DNA abundance (4.5 h post-induction vs induction); higher = less antimicrobial activity (less host growth inhibition)
# Conditions: time post-induction: 4.5 h; library: site-saturation at positions 5, 18, 19, 20
# 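Further: peptides expressed intracellularly from a pBAD plasmid library in pooled LB shake-flask culture, induced with 0.3% L-arabinose, DNA abundance read by NGS, three biological replicates, DESeq2 with apeglm shrinkage.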
row,Sequence,shrunken log2 fold change
1,RRIRIRPPRLPRPRPRPIIRPRP,-0.453
2,RRIRSRPPRLPRPRPRPESEPRP,0.0793
3,RRIRTRPPRLPRPRPRPWIFPRP,-0.0415
4,RRIRWRPPRLPRPRPRPCFMPRP,-0.0873
5,RRIRYRPPRLPRPRPRPFTFPRP,-1.08
6,RRIRSRPPRLPRPRPRPERTPRP,0.0493
7,RRIRPRPPRLPRPRPRPPDSPRP,0.326
8,RRIRTRPPRLPRPRPRPLQGPRP,0.12
9,RRIRWRPPRLPRPRPRPNEEPRP,-0.0212
10,RRIRWRPPRLPRPRPRPNCMPRP,-0.302
11,RRIRARPPRLPRPRPRPHRIPRP,-0.145
12,RRIRARPPRLPRPRPRPYQAPRP,-0.0488
13,RRIRWRPPRLPRPRPRPGRFPRP,0.152
14,RRIRWRPPRLPRPRPRPLMHPRP,0.0245
15,RRIRIRPPRLPRPRPRPACWPRP,0.222
16,RRIRQRPPRLPRPRPRPPIRPRP,-0.0146
17,RRIRTRPPRLPRPRPRPGFPPRP,-0.0413
18,RRIRFRPPRLPRPRPRPDAEPRP,0.373
19,RRIRARPPRLPRPRPRPNVVPRP,-0.0083
20,RRIRVRPPRLPRPRPRPAEEPRP,0.113
21,RRIRWRPPRLPRPRPRPMFHPRP,-0.271
22,RRIRPRPPRLPRPRPRPNIHPRP,-0.579
23,RRIRPRPPRLPRPRPRPFHIPRP,-0.161
24,RRIRCRPPRLPRPRPRPFIEPRP,0.184
25,RRIRDRPPRLPRPRPRPFFVPRP,0.0823

row,Sequence,shrunken log2 fold change
1,RRIRARPPRLPRPRPRPCMFPRP,0.0445
2,RRIRKRPPRLPRPRPRPCKYPRP,0.0409
3,RRIRCRPPRLPRPRPRPEECPRP,-0.0128
4,RRIRERPPRLPRPRPRPGMHPRP,0.0491
5,RRIRPRPPRLPRPRPRPCQEPRP,-0.0635
6,RRIRRRPPRLPRPRPRPPVSPRP,0.332
7,RRIRFRPPRLPRPRPRPQWRPRP,1.49
8,RRIRQRPPRLPRPRPRPMRIPRP,-0.0249
9,RRIRHRPPRLPRPRPRPVLPPRP,-0.0347
10,RRIRLRPPRLPRPRPRPTRDPRP,0.454
11,RRIRSRPPRLPRPRPRPEWPPRP,0.112
12,RRIRFRPPRLPRPRPRPLQKPRP,-0.235
13,RRIRWRPPRLPRPRPRPYNVPRP,-0.758
14,RRIRWRPPRLPRPRPRPVAGPRP,0.524
15,RRIRNRPPRLPRPRPRPMHAPRP,0.0438
16,RRIRHRPPRLPRPRPRPQWRPRP,0.324
17,RRIRRRPPRLPRPRPRPCPQPRP,0.0779
18,RRIRDRPPRLPRPRPRPKFAPRP,-0.0673
19,RRIRFRPPRLPRPRPRPREHPRP,0.0409
20,RRIRGRPPRLPRPRPRPDEHPRP,1.5
21,RRIRIRPPRLPRPRPRPPPLPRP,0.302
22,RRIRQRPPRLPRPRPRPFWGPRP,-0.0312
23,RRIRVRPPRLPRPRPRPAGAPRP,0.417
24,RRIRTRPPRLPRPRPRPGMHPRP,0.0032
25,RRIRGRPPRLPRPRPRPHEPPRP,1.15

row,Sequence,shrunken log2 fold change
1,RRIRVRPPRLPRPRPRPVDAPRP,0.485
2,RRIRERPPRLPRPRPRPLQHPRP,0.159
3,RRIRFRPPRLPRPRPRPMQFPRP,-0.0783
4,RRIRCRPPRLPRPRPRPEWTPRP,0.154
5,RRIRHRPPRLPRPRPRPPKLPRP,0.12
6,RRIRDRPPRLPRPRPRPPGQPRP,0.0311
7,RRIRSRPPRLPRPRPRPAQAPRP,0.15
8,RRIRKRPPRLPRPRPRPTGQPRP,0.84
9,RRIRWRPPRLPRPRPRPTRWPRP,0.573
10,RRIRTRPPRLPRPRPRPYIIPRP,-0.59
11,RRIRWRPPRLPRPRPRPDWGPRP,-0.0819
12,RRIRFRPPRLPRPRPRPGHKPRP,0.0531
13,RRIRRRPPRLPRPRPRPASCPRP,0.0969
14,RRIRQRPPRLPRPRPRPYAHPRP,-0.249
15,RRIRHRPPRLPRPRPRPHQPPRP,-0.0185
16,RRIRQRPPRLPRPRPRPNCEPRP,0.117
17,RRIRVRPPRLPRPRPRPGQHPRP,0.0795
18,RRIRRRPPRLPRPRPRPLYKPRP,-0.248
19,RRIRPRPPRLPRPRPRPNWYPRP,-0.338
20,RRIRYRPPRLPRPRPRPICCPRP,-0.137
21,RRIRSRPPRLPRPRPRPESQPRP,0.0194
22,RRIRMRPPRLPRPRPRPIVKPRP,0.0312
23,RRIRLRPPRLPRPRPRPWSNPRP,-0.195
24,RRIRRRPPRLPRPRPRPMSMPRP,-0.17
25,RRIRSRPPRLPRPRPRPFSKPRP,-0.0877

row,Sequence,shrunken log2 fold change
1,RRIRTRPPRLPRPRPRPKFPPRP,-0.0959
2,RRIRHRPPRLPRPRPRPERGPRP,1.02
3,RRIRTRPPRLPRPRPRPGHGPRP,0.138
4,RRIRPRPPRLPRPRPRPEFNPRP,0.0717
5,RRIRNRPPRLPRPRPRPYTTPRP,-0.83
6,RRIRSRPPRLPRPRPRPITYPRP,-0.361
7,RRIRKRPPRLPRPRPRPHYKPRP,-0.446
8,RRIRERPPRLPRPRPRPEPEPRP,0.475
9,RRIRVRPPRLPRPRPRPEDAPRP,0.801
10,RRIRIRPPRLPRPRPRPSYVPRP,-1.22
11,RRIRWRPPRLPRPRPRPEFWPRP,0.6
12,RRIRIRPPRLPRPRPRPVWQPRP,0.536
13,RRIRCRPPRLPRPRPRPCDDPRP,0.0119
14,RRIRYRPPRLPRPRPRPLHTPRP,-0.169
15,RRIRTRPPRLPRPRPRPGSGPRP,0.344
16,RRIRHRPPRLPRPRPRPRNMPRP,-0.65
17,RRIRLRPPRLPRPRPRPMWIPRP,-0.199
18,RRIRRRPPRLPRPRPRPLFVPRP,-0.0826
19,RRIRGRPPRLPRPRPRPWVYPRP,-0.0165
20,RRIRDRPPRLPRPRPRPPHKPRP,0.0115
21,RRIRMRPPRLPRPRPRPMMTPRP,0.141
22,RRIRLRPPRLPRPRPRPGTEPRP,-0.0405
23,RRIRHRPPRLPRPRPRPGNWPRP,-0.0354
24,RRIRTRPPRLPRPRPRPMRMPRP,0.162
25,RRIRDRPPRLPRPRPRPELQPRP,0.072

row,Sequence,shrunken log2 fold change
1,RRIRFRPPRLPRPRPRPKQVPRP,-0.176
2,RRIRGRPPRLPRPRPRPMMPPRP,0.119
3,RRIRGRPPRLPRPRPRPGETPRP,0.515
4,RRIRQRPPRLPRPRPRPLFVPRP,-0.495
5,RRIRDRPPRLPRPRPRPTAEPRP,1.4
6,RRIRNRPPRLPRPRPRPDYSPRP,-0.0548
7,RRIRNRPPRLPRPRPRPAQMPRP,0.177
8,RRIRKRPPRLPRPRPRPEVCPRP,0.0227
9,RRIRVRPPRLPRPRPRPPNMPRP,-0.316
10,RRIRYRPPRLPRPRPRPGRTPRP,-0.121
11,RRIRDRPPRLPRPRPRPQIHPRP,-0.145
12,RRIRCRPPRLPRPRPRPQEHPRP,-0.389
13,RRIRMRPPRLPRPRPRPLMEPRP,1.68
14,RRIRERPPRLPRPRPRPYAVPRP,-0.441
15,RRIRARPPRLPRPRPRPPDAPRP,1.25
16,RRIRPRPPRLPRPRPRPIHDPRP,-0.0217
17,RRIRGRPPRLPRPRPRPKNCPRP,-0.111
18,RRIRMRPPRLPRPRPRPYSPPRP,-0.199
19,RRIRLRPPRLPRPRPRPMKRPRP,-0.0358
20,RRIRTRPPRLPRPRPRPMFNPRP,-0.643
21,RRIRDRPPRLPRPRPRPPFLPRP,0.0487
22,RRIRWRPPRLPRPRPRPKNVPRP,-0.0641
23,RRIRYRPPRLPRPRPRPMYVPRP,-0.0549
24,RRIRVRPPRLPRPRPRPHYAPRP,-0.0814
25,RRIRKRPPRLPRPRPRPPNQPRP,0.17

row,Sequence,shrunken log2 fold change
1,RRIRLRPPRLPRPRPRPTRQPRP,-0.0888
2,RRIRQRPPRLPRPRPRPIHTPRP,0.0773
3,RRIRWRPPRLPRPRPRPGNEPRP,0.403
4,RRIRSRPPRLPRPRPRPCDTPRP,-0.227
5,RRIRIRPPRLPRPRPRPCFNPRP,-0.87
6,RRIRMRPPRLPRPRPRPRSFPRP,0.307
7,RRIRDRPPRLPRPRPRPFFHPRP,0.119
8,RRIRGRPPRLPRPRPRPHSTPRP,0.517
9,RRIRSRPPRLPRPRPRPQRRPRP,0.21
10,RRIRTRPPRLPRPRPRPMTGPRP,0.17
11,RRIRTRPPRLPRPRPRPLIVPRP,-0.438
12,RRIRHRPPRLPRPRPRPLVIPRP,-0.343
13,RRIRVRPPRLPRPRPRPKRQPRP,0.0464
14,RRIRMRPPRLPRPRPRPYMMPRP,-0.111
15,RRIRPRPPRLPRPRPRPWWWPRP,-0.00448
16,RRIRTRPPRLPRPRPRPYHLPRP,-0.805
17,RRIRSRPPRLPRPRPRPWYYPRP,-0.518
18,RRIRPRPPRLPRPRPRPTVSPRP,0.433
19,RRIRLRPPRLPRPRPRPLQWPRP,0.126
20,RRIRLRPPRLPRPRPRPYRGPRP,-0.246
21,RRIRPRPPRLPRPRPRPPFMPRP,0.315
22,RRIRARPPRLPRPRPRPPDMPRP,0.778
23,RRIRERPPRLPRPRPRPIMCPRP,-0.275
24,RRIRFRPPRLPRPRPRPTMGPRP,0.0497
25,RRIRTRPPRLPRPRPRPYCYPRP,-0.104
